Assay results reported in patent publication US5861501.

System: influenza endonuclease (purified viral ribonucleoprotein, low-pH treated; polymerase-associated cap-dependent endonuclease) (Influenza virus)
Experiment: competition
Conditions: 5'-triphosphate; 2'-OMe on G1; 3'-terminal 3'-dA; filter retention competition; binding is cap dependent; scale: % of labeled capped 10-mer binding competed at up to 150 nM

GUAUUAAUAA [5'-triphosphorylated 10-mer (uncapped)]
binding signal: 10
